Experimental data taken from the DeepSol protein solubility set.

Assay: soluble on expression in E. coli; label from the status in PepcDB or PDB records

Sequence	soluble on expression in E. coli
MGSDKIHHHHHHMKLAYFVIPHIGGTYSVFKHLRKGLAAYDIDVRWLGVCKETYGLPLDLQGETAFGQLLRMPVNLSERDCAARMAAAIENGGFDGVIVNVLGDQLQTNIARYLPEGILRILVVHNISPGTYAAARSVRDYAHVTIGVSERCRADLVARNGFPKDRTYAIPNAVDSDAFRSQAVRRVNRGPELKVLFVGRIEDASKGVMWLREILDGSPEAVRLTIVGDGPDMGKLRRRLASHDDRVSYAGSVQLSDIPVIMASHDVLIMPSRFEGLGMTMIEAMAGGCVPVVSHIRGVTDTIVEPGRNGFLFPIGNYTAAANAIGRLHADRDLLERMSIAGKEMVLNRFSIERMAARYNEVIAMTLNDRPGLSTVLRMEDWSIPAGLRPGLRTYLPLPLKNWLRVVRERL	not soluble
MGSDKIHHHHHHMKLILSVESVRFPLTGIGRYTYELASRLQHAEQISDLRLFAGSRFLPELLKPSDQSDAVHGLKRFVQKNALAVEAYRRLMPLLRKRALRGHEDFIYHSTNFYLPPFAGPRVATFHDLSPFTWAHCHTPQIARYLQKELKLTLERADALITVSHHTRKELADYFGWPLERIHAVPLASSPQFHPRTPQALRETLARHGLELGGYSLFVGTIEPRKNIETLLNAYGRLPLALRQRWPLILSGYHGWRSEAIHSRIAQAQQEGWARYLGFVASEDLPLLFAGARLFTFPSHYEGFGLPVLEAMSSGVPVVCSNSSSLPEVAGSAALMCAPDDVEGLTGLLHQGLEDEAWRSAAVQRGLLHAGGFSWERCAQGTVEVYKSVKER	not soluble
MGSDKIHHHHHHMKLLEVKGLKKYFPLTKGFFKKVVGYVRAVDDVSFDIKQGETLALVGESGCGKTTTAKSILRAIDPTDGDVILHLDGKDVNIAKLSRDELKPYRRYMQMIFQNPYTSLNPRMKVKEIVGEPLLVNGIAKGKELEDRVAELLKAVGLRPEYMIRYPHAFSGGQRQRIVIARAIALRPKLVVCDEPTSALDVSIRAQILNLLMDLQEEFALTYLFITHDLSVVEHISDRVAVMYLGKIVELSSTEEIFENPKHPYTETLLRSVPKPDPDLREELVPIEGEVPNPANPPSGCYFHPRCPYAKSICKEEYPEFRNLGTEDNPHYVACHFAESLKLRGVKITL	not soluble
MGSDKIHHHHHHMKLRELLSIGDLKKGKILTKEIGLDNEVDSAMVLEAIDIENWSRKNQLILTSFYALHDLPEKELENFFVKMRRIGISGLILKTDRFIKMIPEWFIELCFNYEIPLIKITQDISYEKILFTIYEPLLNYQSHVLRTYYDVRQRFTKLERHYPTVETIMQEFYDIIKLPFALKMLDKHLEISDGDLPHDAIVLSREKLKNSEFTKNDYSLLTLYSHANPKKQLALEVSIFNSYSTNCLLLVYLQDEKVKETDLVIIENAIDVLQEKFNTENLLKKERYTRLNNLADAILQNTPQNPDELNSLLREVQMQELDSYQAIAFSTKDTNTQLMKERIIALLRTLRVKSIFFDQLNYSAVLFNFNESDGKITKLQLSRLLAELLEENDTLTVAVSSLKSREGIKELLIECLDILRFNETFYNGPIVTLADIGVFKNFIREDQLENLDELIPRALYQLAENNYDLFETLYSFFQNNRNYKQTSEAMFLHSKTIRYRLNKVEQLLDIDLANPLQLLNYEIATYIIKMRRRALEKQSNTR	not soluble
MGSDKIHHHHHHMKLSRLKRKHKRVISVGKIAEQFWCEMKVELKLLYDIKPSNALVRKGKRIHDEISGKASLPRPKNFIDWLGGQIYFTNLSIESFLKSGLGREVFLVTKVDGDGWRWYLSGSIDEIRKKGGRTQVVERKTRLREEVPENESHKVQGLLYHLMLDEARRQKVSRNVKRAYGVVERAAISKEFSQAVGMTERNVKAMLRTLDSKLPMIPELDEEVVVIYESQKTGERIGEVRFKAQREEIERILQFSREYWAGEREALKTRENWKCRFCEVRKYCL	not soluble
MGSDKIHHHHHHMKLTCMQEDLKRGLAAVGHAVAGKSTLPVLANILLATDEGRLKLTATNLEVGINRWISATITRDGAVAVPAKLLTDVVGGLPNDKVTLSLDQKTQTLRVECGRFVSNIKGVDADEFPSLPTVSAQTPLVSLPAEVWQEAIDQVAFAAATDESRPILTGVLVRTRDQQVTLVAADGFRLAMRTIQLSAPVAHAVDCLIPARTLSELARIIGDTDAEVAMVYTPGGSHVLFHTENIEVVSRLIEGRFPDFERIIPQQYLTRMVLDNSELAKAVKLASFFAGSSQNVVKLKIEPASELAPGRVVISANAAELGDNTSELDGSVTGEGGVIALNVRFLADAIAAVHSNQIAFEMQSAQSPAVFKPVGQDGYIHIVMPMSMR	not soluble
MGSDKIHHHHHHMKNFIRKLIRALTAIRLETDRYKHSTLRIIINWLTAFLKDLFSAQEIRLYGLADPEDGANRIRQYVSKEMADRFYRKYNPGAAVPNIEDKFIFTTLCLQHHLPIPATYGIFKQGIVKTFDERIFQESSRFRDFIRELEPGEYLLKPNNGMLGLGLSILEIDDQGSLKFQGKSITADDLYRELCSIEVTLPASSKGDSVDMDFEGLLFQQRIANHPEITKLTGFKMLQTIRICTHVTDNNQVEILFAFMKLAGQEGLADAFNLGKTGNMLAKIDPATGKFCNVYAMDQQQGYLVETTHHAVTQANLLNFTVPHWQACLTLAMKLSTTFLPLRAVGWDIAITDNRPVVLEGNDNWVPVVPFDINIDKLKQYKLKS	not soluble
MGSDKIHHHHHHMKNLRLTLAVIAGKILIYISRLLGHQGTSLPGRIARKIYPRILRTLSTNIRREIVVITGTNGKTTTSNMLAEILQQQGYSLVHNRLGANMLSGITTAFIEKSDIYGSRRFDYALLETDEATVPLLLRETRPRLVLITNFFQDQLDRYGEMDHTIKLIQEAVKDQEIEMLLNADDPLTANFEAETGLKCRYYGFDGNSCDSNRSIDSREVRYCAFCGHPLEYEKYHYAQLGQYSCPQCHSCNPERDFTGQELEMSPDIELKVDGMALKSPYQGFHNAYNILAAVSLARLLGVEEENIKKAIASFQPQAGRMEAFFINGKRVVLALVKNPAALNQTLASLIYDPSRKNLFFALNDNAADGRDISWIWDADVELLEYENVMVEQIVCSGQRSGDIALRFKYAGFPQERIRIEAELPRAIELAVQGSAESSYILCSYTALFACQRILREMEKRSGAGEETEKAYQPQS	not soluble
MGSDKIHHHHHHMKNVNQELLNHVILHKDRIPHFHKDFPLILFWSHRSGCTTLANWFFFQIGLFNEAKKYHDFIHYYEFWVYKNNTNYIPELQNGLLTAEKAVCKLVRNPYTRAVSSFLLLADNPYAIPQWESIRQYLYNDKYSNRGISFKQFLYYVRALGPNSLTMDIHFSQQYVPGEENFIQHYIPLEDFNTQITKIEHTYDLVKSNLALLTNSDHHRAHKMMYTGSYAELSITDVAFPRFPTYESFYDEETMALVTEIYAQDFEMYPYTKGIF	not soluble
MGSDKIHHHHHHMKNYTPIQTETTQNHSKSAGMNNQTEKVLDFDECITFLNKKGKELFGLKFFIDPADYEVVYKILIYIIKDERNAQRHKISLDKGIMLSGPVGCGKTTLMNLMNHIIPVANRYIVRSCRLVSYDFISQGYDAIHKYSYQSFKNNKKVVTPQAWCFDDLGTESSLKYYGNECNVMAEILLSRYDLFIEKDMVTHITTNLVAEEIESFYGVRVRSRMREMFNLISFDRNSKDKRV	not soluble
MGSDKIHHHHHHMKPIDIKENKNPVESAQFGKTQDEPLSDKTHVQISDEATQWLLTIEEDDSENNQQALNAWLSLSAQHKKVYQQLQTLWEVADELPVDLFSEDLLGLSMTPSSAVNTSSRVNPYALKKESILAKFISFFTLRKTMYTASFASVIFATFITFTQYNREMVTTDKPLQVASSSTLRTNEYQTKLGEHKTITAQDGSIIVLAAKSQVFIDYSANRRDIHLLYGEALFTVEKDKERPFIVHNHGRSVQALGTIFNVRESKSAMQVSVLEGIVEVNVEPEVKSKVTNSSDKNQVATLVAGQALELDSLGQFSTTYAIEVNERMAWQDGRLNYVNTDLANVIFDLKRYSTLSIHIPNKQVANMGYTGSVIYDKVDDWLIALPYIFPVEVQRHGNSVVIVKRKE	not soluble
MGSDKIHHHHHHMKPSRFNLVINESDGTLLFNTLSQALLWIDRKNTNKVLKTLEDPSSTELSKTEVEKLKRGMFLLDDNFDELEFLKFRFNTYRYSDRFLRYTIVLTHSCNFDCVYCYQKVLHISSGSYISEKVQSNFLLDVERKLEYQKPNLLSVTFYGGEPLLLEETVVNLSSKLKRLCEKYGVKYDSFIVTNGYLLTEKMVDDLQKAGIKALDITLDGTEVYHDRYRKARNGAPTFSSIFENIFRAVNKGLFVQIRVNVSRENIEDVKKLIDRIAEKKLRVEFNFQPIEIVEGNPTGFQDTALNTEEFAEIETKLWWYIREKIPEYPFEYFKKPRFARCDAMCKNSFVVDVDGRVYKCWGELGMENCSGFLKETGVEFTGSYLKWLTYDPLEDEECRRCLVLPFCMGGCAFNRVVYRTLKSSKVKKPHTCIPLRYNLNEFIKIVADYKRRSAVHGISQRSSGG	not soluble
MGSDKIHHHHHHMKQILNTLYVMTQGAYVCLDHETVKVEVKGALQMQVPLHHLGAIVTMGNVMMSPFIMARCAEDGRALVILDRNGKFKCRVVGKTSGNVLLRQTQYEAVRDRERSAAIARNMVAGKVKNARQILMRGARETTDADESAVLRKAGDTLADALFHLKDATDIDHVRGLEGEAANAYFQVFDRMVKEEERPAFRMNGRNRRPPLDPMNALLSFLYTLLLNDCISAVEGVGLDSQMGFLHVLRPGRPSLGLDIMEEFRAVLADRLALTLINRKQITEKHFEVRPGGATYLDDAGRKEVIMAYQKRKQDEFHHPVLDQKVPFGLLPHVQARLLARHLRGDLEQYTPVLYS	not soluble
MGSDKIHHHHHHMKQMKIPATYMRGGTSKGVFFALKDLPLNAQQPGPARDALLLRVIGSPDPYGKQTDGMGGATSSTSKTVILDKSQRDDHDVDYLFGQVAIDKPFVDWSGNCGNLTAAVGAFAITQGLVDSAKIPDNGIAVVKIWQANINKTIIAHVPMVDGEVQELGDFELDGVTFPAAEVLVEFVDPADGEGDMFPTGNLVDKLEVPGEPVFDATFINAGIPTIFLKAEQLGYEGTELQEAINGDAAALERFETIRAHGALQMGLIQSLDEAAGRQHTPKIAFVAPAKAYTSSSGKQIAAEEIDLHVRALSMGKLHHAMMGTAAVAIGTAASIPGTLVNQAAGGQARESVRFGHPSGTLKVGAKASEQEGRWQVEKVSMSRSARVLMQGWVCVPESLG	not soluble
MGSDKIHHHHHHMKQVSIIGAGIGGLTAAVRLQKLGYNVTIYEQNAQPGGKMNQIVSQGFTFDVGPTIVMMKDIYEEVFRFCGVDPHNYLPFEEVQPLMHLVFGDQSSLDLSRDLPTLIAEINRIAPDDVNGMLNFLADIYHRYTIAKPNFLERSFRNWRDFYNLPALYAGLQLRTFNNAYKNIAKFIKNENLRNSLAFQTLYIGISPYQGPSLYNIIPMIELFYGVYFLKGGMYTVVNSLVKLFKEQGGTLKLATPVQEIIIKDKVAVGIRVNNHPIHSDYVLCNADFPTAMTTLIPNEQDRGQYTDQKIAKMDYSCSCLVLYLGLDKKYPTEALHTIHFAQDFSKNVADLFDNGKLPEDPSYYVYVPSKMDPSLAPENSEALYVLVPVPELSKFNDWSPTTLKNYRQLIINKLRQTATFSDIEQHIVVEKQFTPVDFKEQFGAYNGATFGLRPTLKQSNYYRPHNKFDYADHLYFCGSSTHPGAGVPIVMQSAKLAVEELIKDDQTNA	not soluble
MGSDKIHHHHHHMKRVERVIITCAVTGSIHTPSMSPYLPVTPEQIAADSVAAAQAGAAMLHLHARNPRTGRPEQTPERFMEFLPRIREQCGAILNITTGGGLGMTLEERLAPAIAARPEVASMNMGSLNFNISGAAGKIRQFQHEWEKPYLEGTNDFILSNTFSQIEHGMRVLGESGTRFEFECYDVGHLYNLAHFVDRGLVKPPFFVQCIFGILGGIGADPENLLHMRAIADRLFGADYLLSVLAAGRHQMPFVSLSAILGGSVRVGLEDSLFIARHQLARSNAEQVAKIRRIVEELGLTVATADEARAMLATKGGDNVGF	not soluble
